Measured values from paper PMC6675122, “N-terminal β-strand underpins biochemical specialization of an ATG8 isoform” (PLoS Biology, 2019).
Entries after “also recorded” stand apart in the source; their conditions may differ.

System: ATG8
Assay: in planta Co-IP, Vps4 with ATG8 (ATG8-2.2, ATG8-4, ATG8-4-S3)
Type: binding, Solanum tuberosum

B1: Vps4: potato vacuolar protein sorting 4; known as SKD1 in A. thaliana; ESCRT function (protein)
chain: MYSNFKEQAIEFVRQAVQEDNGGNYAKAFPLYMNALEYFKTHLKYEKNPKIKEAITQKFTEYLRRAEEIRAVLDEGGSGPGPNGGDAAVMAKPKTKPKDGEDGEDPEQSKLRAGLNSAIVREKPNVKWNDVAGLESAKQALQEAVILPVKFPQFFTGKRRPWRAFLLYGPPGTGKSYLAKAVATEAESTFFSVSSSDLVSKWMGESEKLVSNLFQMARESAPSIIFVDEIDSLCGQRGEGNESEASRRIKTELLVQMQGVGHNDDKVLVLAATNTPYALDQAIRRRFDKRIYIPLPDLKARQHMFKVHLGDTPHNLSESDFEDLARKTEGFSGSDVSVCVKDVLFEPVRKTQDAVFFTQTSNGTWIPCGPKQQGAVQTTMQELDAKGLASQIIPPPITKTDFDKVLARQRPTVSKSDLEVHDRFTKEFGEEG
Co-IP, ATG8-2.2, ATG8-4 and ATG8-4-S3
  dependence of Vps4 binding on the ATG8 first β-strand: the role of the N-terminal β-strand region in conferring binding to AIM-containing proteins was confirmed; also recorded: The ATG8 region surrounding the first β-strand is responsible for discriminatory binding to potato Vps4
Vps4:3xMyc co-expressed with GFP:ATG8 in N. benthamiana, anti-GFP IP, immunoblot
  interaction of Vps4 with ATG8: direct interaction between Vps4 and ATG8
